Assay results published in patent US20240287138A1, “CYCLIC PEPTIDES FOR INHIBITING TNF RECEPTOR 1 ACTIVITY” (Merck Sharp & Dohme LLC, priority 2023, published 2024).
Numbered stars: 1 amine (or outer) side, 2 acyl side, 3 side chain; on linkers, the order of the positions; unused ones are H or OH. Square brackets hold non-standard residues; d marks the D form. RbOHPhe4CONH2 = (2S,3R)-2-amino-3-(4-carbamoylphenyl)-3-hydroxypropanoic acid, NC(=O)c1ccc([C@@H](O[*:3])[C@H](N[*:1])C(=O)[*:2])cc1; bhcLeu = (1R,3S)-3-aminocyclopentane-1-carboxylic acid, O=C([C@@H]1CC[C@H](N[*:1])C1)[*:2]; Trp(βS-Me,7-OMe) = COc1cccc2c([C@H](C)[C@H](N)C(=O)O)c[nH]c12; dPro(trans-4-NMe2) = CN(C)[C@@H]1CN[C@@H](C(=O)O)C1; Trp(7-CN) = N#Cc1cccc2c(C[C@H](N)C(=O)O)c[nH]c12; Phe(4-COOH) = N[C@@H](Cc1ccc(C(=O)O)cc1)C(=O)O; Trp(7-aza) = N[C@@H](Cc1c[nH]c2ncccc12)C(=O)O; Pip(4-aza) = O=C(O)[C@@H]1CNCCN1; 4Pal = N[C@@H](Cc1ccncc1)C(=O)O; αMeS = C[C@](N)(CO)C(=O)O; Nle = CCCC[C@H](N)C(=O)O; Sar = CNCC(=O)O

T1: TNFR1 on THP-1 Lucia NF-κB reporter cells, P19438
T1 chain: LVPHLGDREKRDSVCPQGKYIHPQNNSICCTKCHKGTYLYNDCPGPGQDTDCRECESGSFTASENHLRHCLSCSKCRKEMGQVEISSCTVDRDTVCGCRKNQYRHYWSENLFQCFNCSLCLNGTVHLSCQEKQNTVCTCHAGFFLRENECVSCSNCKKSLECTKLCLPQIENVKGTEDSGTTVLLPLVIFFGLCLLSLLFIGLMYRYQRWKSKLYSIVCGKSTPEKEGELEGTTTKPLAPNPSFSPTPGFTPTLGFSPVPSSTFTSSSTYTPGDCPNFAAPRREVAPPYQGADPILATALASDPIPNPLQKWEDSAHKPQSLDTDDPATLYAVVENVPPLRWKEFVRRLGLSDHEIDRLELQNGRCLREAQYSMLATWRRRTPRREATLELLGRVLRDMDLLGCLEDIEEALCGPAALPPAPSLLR

T2: recombinant human TNFR1 extracellular domain (ECD), biotinylated via C-terminal Avi-tag, construct SEQ. ID NO. P2 (human)
T2 chain: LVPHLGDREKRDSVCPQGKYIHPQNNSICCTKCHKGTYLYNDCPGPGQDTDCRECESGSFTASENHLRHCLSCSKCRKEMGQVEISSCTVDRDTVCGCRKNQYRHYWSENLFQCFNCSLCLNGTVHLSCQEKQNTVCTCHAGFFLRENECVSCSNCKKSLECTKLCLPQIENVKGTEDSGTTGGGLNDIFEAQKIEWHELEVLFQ

T3: human soluble TNFR1, C-terminally 6His-tagged (sTNFR1-6His, residues 1-211), SEQ. ID NO. P1 (human)
T3 chain: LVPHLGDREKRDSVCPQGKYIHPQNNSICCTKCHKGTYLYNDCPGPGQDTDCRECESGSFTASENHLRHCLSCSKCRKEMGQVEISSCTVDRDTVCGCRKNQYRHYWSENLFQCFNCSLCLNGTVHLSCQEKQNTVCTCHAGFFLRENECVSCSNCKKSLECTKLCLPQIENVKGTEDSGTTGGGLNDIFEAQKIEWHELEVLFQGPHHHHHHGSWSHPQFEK

B1: SEQ ID NO. 287 (Example No. 287) macrocyclic peptide (peptide)
peptide: cyclo([bhcLeu][Nle][4Pal][Pip(4-aza)][Trp(7-aza)][dPro(trans-4-NMe2)]N[Phe(4-COOH)][Trp(7-CN)][αMeS][Phe(4-COOH)][RbOHPhe4CONH2][Sar][Trp(βS-Me,7-OMe)])
SMILES: CCCC[C@@H]1NC(=O)[C@@H]2CC[C@@H](C2)NC(=O)[C@H]([C@@H](C)c2c[nH]c3c(OC)cccc23)NC(=O)CN(C)C(=O)[C@H]([C@H](O)c2ccc(C(N)=O)cc2)NC(=O)[C@H](Cc2ccc(C(=O)O)cc2)NC(=O)[C@](C)(CO)NC(=O)[C@H](Cc2c[nH]c3c(C#N)cccc23)NC(=O)[C@H](Cc2ccc(C(=O)O)cc2)NC(=O)[C@H](CC(N)=O)NC(=O)[C@H]2C[C@H](N(C)C)CN2C(=O)[C@H](Cc2c[nH]c3ncccc23)NC(=O)[C@@H]2CNCCN2C(=O)[C@H](Cc2ccncc2)NC1=O

Experiments:
[1] = molecular target: T1, TNFR1 on THP-1 Lucia NF-κB reporter …; experiment: cell-based or functional assay
[2] = molecular target: T2, recombinant human TNFR1 extracellular …; experiment: SPR (Cytiva 8K/8K+), peptide analyte over captured biotinylated human TNFR1 ECD
[3] = molecular target: T3, human soluble TNFR1, C-terminally …; experiment: TR-FRET displacement of biotinylated peptide SEQ ID NO. 1 from sTNFR1-6His; 4-parameter fit
[4] = molecular target: human soluble TNFR1, C-terminally 6His-tagged (sTNFR1-6His, residues 1-211), SEQ. ID NO. P1 (human); experiment: TR-FRET displacement of biotinylated peptide SEQ ID NO. 1 from sTNFR1-6His; Morrison-based 5-parameter fit

THP-1 IC50 [1]	Kd [2]	IC50 [3]	Kd^app [4]	Binder
36.4 nM	7.43 nM	9.87 nM	–	FYSWGNYWSYYGWCGEE (modifications not checked) [SEQ ID NO. 289 (Example No. 289) macrocyclic peptide]
–	–	–	0.22 nM	B1
